# B1: Age-related maculopathy susceptibility protein 2 (Homo sapiens), P0C7Q2 (parent)
# chain: MLRLYPGPMVTEAEGKGGPEMASLSSSVVPVSFISTLRESVLDPGVGGEGASDKQRSKLSLSHSMIPAAKIHTELCLPAFFSPAGTQRRFQQPQHHLTLSIIHTAAR
# partner: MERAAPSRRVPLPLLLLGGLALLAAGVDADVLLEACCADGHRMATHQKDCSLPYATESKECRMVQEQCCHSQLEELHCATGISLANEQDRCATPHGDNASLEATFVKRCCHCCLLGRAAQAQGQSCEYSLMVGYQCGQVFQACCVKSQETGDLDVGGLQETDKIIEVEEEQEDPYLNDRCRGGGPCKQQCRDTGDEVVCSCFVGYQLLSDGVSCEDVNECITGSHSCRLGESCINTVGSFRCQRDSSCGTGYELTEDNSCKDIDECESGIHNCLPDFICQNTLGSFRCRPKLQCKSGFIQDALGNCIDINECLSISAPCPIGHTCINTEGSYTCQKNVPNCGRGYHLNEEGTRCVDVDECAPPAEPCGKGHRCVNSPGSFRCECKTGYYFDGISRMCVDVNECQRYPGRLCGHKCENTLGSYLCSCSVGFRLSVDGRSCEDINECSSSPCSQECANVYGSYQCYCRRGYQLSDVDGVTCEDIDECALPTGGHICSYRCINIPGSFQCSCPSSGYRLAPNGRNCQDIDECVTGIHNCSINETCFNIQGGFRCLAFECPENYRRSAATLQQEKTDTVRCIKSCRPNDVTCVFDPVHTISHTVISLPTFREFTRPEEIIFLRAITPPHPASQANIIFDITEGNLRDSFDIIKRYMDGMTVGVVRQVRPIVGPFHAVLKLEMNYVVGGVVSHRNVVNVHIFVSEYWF
# B2: Age-related maculopathy susceptibility protein 2 (Homo sapiens), P0C7Q2 (parent)
# chain: B1 chain
# Columns and labels:
# [1] = variants of: B1; details: with fbln1_human FBLN1, P23142
# [2] = variants of: B2; details: with psg11_human PSG11, Q9UQ72
# [3] = variants of: B2; details: with co1a1_human COL1A1, P02452
# finc_human FN1, P02751 = variants of: B2; details: with finc_human FN1, P02751
# [4] = variants of: B2; details: with co4a2_human COL4A2, P08572
# [5] = variants of: B2; details: with emil2_human EMILIN2, Q9BXX0
# [6] = variants of: B2; details: with hmcn1_human HMCN1, Q96RW7
# psg9_human PSG9, Q00887 = variants of: B2; details: with psg9_human PSG9, Q00887
# Sequence of psg9_human PSG9, Q00887 (Q00887 whole entry): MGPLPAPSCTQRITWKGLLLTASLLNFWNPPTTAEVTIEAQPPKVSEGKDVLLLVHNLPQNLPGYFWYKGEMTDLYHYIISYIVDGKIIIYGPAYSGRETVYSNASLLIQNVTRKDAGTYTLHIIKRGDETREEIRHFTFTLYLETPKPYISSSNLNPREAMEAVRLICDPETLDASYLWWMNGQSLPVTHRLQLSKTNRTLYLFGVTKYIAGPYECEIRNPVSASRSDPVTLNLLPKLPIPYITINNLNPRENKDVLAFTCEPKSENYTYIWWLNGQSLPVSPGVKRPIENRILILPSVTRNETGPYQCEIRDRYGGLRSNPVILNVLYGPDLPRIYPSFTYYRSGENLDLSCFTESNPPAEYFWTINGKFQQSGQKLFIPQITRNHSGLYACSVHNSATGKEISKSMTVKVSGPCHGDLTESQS
# Sequence of psg11_human PSG11, Q9UQ72 (Q9UQ72 whole entry): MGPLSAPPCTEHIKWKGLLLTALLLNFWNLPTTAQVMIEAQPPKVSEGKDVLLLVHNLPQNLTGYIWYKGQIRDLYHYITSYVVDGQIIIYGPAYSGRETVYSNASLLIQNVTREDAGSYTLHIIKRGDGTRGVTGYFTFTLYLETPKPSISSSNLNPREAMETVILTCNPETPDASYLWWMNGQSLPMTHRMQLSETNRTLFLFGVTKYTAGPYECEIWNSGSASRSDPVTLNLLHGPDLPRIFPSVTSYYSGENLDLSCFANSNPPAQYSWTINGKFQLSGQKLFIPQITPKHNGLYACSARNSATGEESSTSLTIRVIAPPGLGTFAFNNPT
# Sequence of co4a2_human COL4A2, P08572 (P08572 whole entry): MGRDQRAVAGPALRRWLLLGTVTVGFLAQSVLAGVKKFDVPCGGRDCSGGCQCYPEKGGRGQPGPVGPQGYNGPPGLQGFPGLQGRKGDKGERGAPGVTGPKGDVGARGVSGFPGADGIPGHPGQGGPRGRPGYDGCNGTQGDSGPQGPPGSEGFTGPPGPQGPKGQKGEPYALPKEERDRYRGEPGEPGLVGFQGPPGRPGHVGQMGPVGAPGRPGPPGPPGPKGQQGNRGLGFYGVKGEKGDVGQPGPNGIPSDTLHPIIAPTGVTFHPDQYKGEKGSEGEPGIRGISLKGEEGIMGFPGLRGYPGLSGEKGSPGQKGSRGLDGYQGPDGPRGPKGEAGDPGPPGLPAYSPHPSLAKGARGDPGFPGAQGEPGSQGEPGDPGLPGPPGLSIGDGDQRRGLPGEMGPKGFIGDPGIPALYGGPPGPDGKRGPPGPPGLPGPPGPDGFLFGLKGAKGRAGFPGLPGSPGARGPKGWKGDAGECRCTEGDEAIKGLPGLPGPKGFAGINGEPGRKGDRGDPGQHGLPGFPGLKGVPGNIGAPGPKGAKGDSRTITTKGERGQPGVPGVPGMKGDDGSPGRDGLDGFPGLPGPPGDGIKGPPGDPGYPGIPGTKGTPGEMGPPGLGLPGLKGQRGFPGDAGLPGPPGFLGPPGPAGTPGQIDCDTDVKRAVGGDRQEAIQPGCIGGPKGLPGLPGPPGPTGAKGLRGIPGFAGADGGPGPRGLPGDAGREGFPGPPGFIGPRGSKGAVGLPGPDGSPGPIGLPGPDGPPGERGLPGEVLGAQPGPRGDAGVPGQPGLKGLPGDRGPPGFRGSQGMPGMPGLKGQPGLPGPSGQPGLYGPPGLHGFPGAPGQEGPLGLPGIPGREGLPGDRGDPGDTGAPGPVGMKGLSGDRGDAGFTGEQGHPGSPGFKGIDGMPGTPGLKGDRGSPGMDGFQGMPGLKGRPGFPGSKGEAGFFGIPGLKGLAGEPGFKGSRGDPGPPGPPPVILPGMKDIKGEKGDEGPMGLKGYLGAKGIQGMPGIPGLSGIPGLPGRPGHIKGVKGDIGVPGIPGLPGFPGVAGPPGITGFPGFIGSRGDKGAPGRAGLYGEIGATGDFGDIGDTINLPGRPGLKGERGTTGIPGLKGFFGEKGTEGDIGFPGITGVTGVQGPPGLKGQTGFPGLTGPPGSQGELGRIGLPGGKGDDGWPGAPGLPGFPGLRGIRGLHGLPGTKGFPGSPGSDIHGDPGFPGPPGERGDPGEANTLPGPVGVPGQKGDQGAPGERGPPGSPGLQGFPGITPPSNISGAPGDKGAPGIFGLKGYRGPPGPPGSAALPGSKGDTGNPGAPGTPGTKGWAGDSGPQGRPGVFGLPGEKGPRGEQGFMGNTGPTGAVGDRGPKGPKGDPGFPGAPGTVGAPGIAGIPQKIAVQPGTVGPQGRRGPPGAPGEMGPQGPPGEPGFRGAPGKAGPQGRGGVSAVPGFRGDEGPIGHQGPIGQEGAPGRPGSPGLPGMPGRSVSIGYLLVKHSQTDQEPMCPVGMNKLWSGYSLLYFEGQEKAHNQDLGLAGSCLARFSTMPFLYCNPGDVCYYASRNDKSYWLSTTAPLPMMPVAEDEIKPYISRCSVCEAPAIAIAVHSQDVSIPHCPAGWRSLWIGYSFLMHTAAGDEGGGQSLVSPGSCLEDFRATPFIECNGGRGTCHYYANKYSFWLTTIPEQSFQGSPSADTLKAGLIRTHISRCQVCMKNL
# Sequence of finc_human FN1, P02751 (P02751 whole entry): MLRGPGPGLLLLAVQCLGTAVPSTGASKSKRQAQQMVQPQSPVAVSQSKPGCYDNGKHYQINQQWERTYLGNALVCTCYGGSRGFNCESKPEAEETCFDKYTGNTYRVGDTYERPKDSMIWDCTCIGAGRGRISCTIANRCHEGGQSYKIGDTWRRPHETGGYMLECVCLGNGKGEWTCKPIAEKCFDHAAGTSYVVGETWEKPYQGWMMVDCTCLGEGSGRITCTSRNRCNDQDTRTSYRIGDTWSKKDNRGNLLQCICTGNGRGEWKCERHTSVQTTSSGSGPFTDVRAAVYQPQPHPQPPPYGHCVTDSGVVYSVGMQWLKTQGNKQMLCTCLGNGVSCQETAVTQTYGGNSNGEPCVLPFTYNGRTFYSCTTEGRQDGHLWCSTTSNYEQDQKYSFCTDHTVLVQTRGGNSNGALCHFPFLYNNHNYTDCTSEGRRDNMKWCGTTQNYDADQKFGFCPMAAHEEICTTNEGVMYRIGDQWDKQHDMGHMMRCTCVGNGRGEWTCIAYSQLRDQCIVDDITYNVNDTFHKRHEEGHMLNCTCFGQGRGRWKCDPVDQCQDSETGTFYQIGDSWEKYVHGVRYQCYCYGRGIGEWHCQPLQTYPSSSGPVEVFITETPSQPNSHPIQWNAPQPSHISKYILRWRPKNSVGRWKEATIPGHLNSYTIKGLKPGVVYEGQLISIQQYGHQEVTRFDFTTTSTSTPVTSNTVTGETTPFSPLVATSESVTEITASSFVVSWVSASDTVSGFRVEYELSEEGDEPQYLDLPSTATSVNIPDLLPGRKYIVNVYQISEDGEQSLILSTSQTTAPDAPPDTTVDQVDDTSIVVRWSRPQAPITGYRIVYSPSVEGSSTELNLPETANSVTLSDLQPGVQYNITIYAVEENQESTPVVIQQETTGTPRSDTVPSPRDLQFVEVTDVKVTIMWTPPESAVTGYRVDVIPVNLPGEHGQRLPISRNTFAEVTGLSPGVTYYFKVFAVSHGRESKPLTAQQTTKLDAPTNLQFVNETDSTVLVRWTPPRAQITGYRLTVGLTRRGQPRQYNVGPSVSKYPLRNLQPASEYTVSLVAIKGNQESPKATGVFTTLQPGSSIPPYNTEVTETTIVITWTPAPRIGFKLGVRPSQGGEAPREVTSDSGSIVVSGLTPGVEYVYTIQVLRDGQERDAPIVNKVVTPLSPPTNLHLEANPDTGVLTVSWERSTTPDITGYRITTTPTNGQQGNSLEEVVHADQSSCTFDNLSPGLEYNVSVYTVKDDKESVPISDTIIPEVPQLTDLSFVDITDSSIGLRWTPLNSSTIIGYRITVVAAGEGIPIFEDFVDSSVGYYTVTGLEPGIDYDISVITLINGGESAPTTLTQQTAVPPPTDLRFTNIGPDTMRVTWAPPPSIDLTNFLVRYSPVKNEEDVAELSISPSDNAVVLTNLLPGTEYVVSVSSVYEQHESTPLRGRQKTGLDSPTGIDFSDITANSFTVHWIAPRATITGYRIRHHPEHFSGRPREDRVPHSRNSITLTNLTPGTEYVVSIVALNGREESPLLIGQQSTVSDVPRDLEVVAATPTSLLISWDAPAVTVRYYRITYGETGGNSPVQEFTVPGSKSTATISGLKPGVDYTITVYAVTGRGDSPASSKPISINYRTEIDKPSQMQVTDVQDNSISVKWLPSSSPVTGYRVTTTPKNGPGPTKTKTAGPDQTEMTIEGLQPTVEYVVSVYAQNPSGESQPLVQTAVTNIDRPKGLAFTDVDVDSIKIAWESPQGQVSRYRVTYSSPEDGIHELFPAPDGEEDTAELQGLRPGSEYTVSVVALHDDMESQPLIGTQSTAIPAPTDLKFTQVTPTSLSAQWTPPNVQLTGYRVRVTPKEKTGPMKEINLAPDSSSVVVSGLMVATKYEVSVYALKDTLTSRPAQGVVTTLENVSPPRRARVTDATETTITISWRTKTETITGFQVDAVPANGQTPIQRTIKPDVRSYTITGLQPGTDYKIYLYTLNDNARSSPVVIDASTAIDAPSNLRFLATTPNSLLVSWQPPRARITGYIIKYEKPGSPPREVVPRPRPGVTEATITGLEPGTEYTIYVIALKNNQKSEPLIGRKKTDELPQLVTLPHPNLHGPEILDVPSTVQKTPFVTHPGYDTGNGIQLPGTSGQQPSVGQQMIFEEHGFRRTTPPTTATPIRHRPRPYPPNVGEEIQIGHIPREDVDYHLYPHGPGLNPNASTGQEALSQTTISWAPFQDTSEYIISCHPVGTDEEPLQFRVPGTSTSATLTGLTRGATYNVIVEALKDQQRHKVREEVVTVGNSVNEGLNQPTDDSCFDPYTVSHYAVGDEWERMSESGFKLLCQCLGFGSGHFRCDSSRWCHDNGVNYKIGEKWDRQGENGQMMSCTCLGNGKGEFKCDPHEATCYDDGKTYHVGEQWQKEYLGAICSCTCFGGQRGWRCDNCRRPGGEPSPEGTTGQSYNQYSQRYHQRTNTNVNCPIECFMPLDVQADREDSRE
effect of a mutation on the interaction [1],effect of a mutation on the interaction [2],effect of a mutation on the interaction [3],"effect of a mutation on the interaction (finc_human FN1, P02751)",effect of a mutation on the interaction [4],effect of a mutation on the interaction [5],effect of a mutation on the interaction [6],"effect of a mutation on the interaction (psg9_human PSG9, Q00887)",Variant
with no effect,–,–,–,–,–,–,–,A69S
–,with no effect,with no effect,with no effect,with no effect,with no effect,with no effect,with no effect,A69S
